Assay results: the DeepSol protein solubility set

Assay: soluble on expression in E. coli; label from the status in PepcDB or PDB records

Soluble on expression in E. coli, not soluble:
MGSDKIHHHHHHMMILIQSRGKMKCKELSEELEVSERQIKSYKMYLEQAGIFINSTPGIYGGYEIDKCNSISLIKLLDSEVSILDMINSQLEYNNDIYKNEFNNIVEKIKAVLNTGEKSDTYMDYFTVQAQRNCDYESEKNKCNEIIRAYTTKHKFWIEYYSLNSGNSERIVHPYGLFNYKSDTYMVAFCEKRFKFIDFKLCRIKDYKVLEEKYNVDKSFSWDEYSKNSIGIYKGEEINVVIKISHPFSTIIKEKVWVNNQQIIEYDDKSIMFKAKMRGYEEIKSWILSMGAYVEVVEPDRLRNDILSEIEKMKKIY
MGSDKIHHHHHHMMKKTHYNILMVNLPFSGHTNPTLGLAQILVQLGHNVTYINAPDWQSKIERTGAHFVPYDHYPDSLSERQKKVKSWSAAYQTVLRMGKDYDCLIYEMLFFPGKALADRLNIPAYRLFSTFSLNEKILTEFGKTGGFYLTSIFRFTFLRHLLSRKLQRTFQLAYDDLAKEISLNTPELNFTYTVREFQIDADTFDENHYQYVGPSINRPVEPPFDFTPFKNPIIYISLGTLLNRSVSFFKKCIKAFENEPYSIIISLGNRIKKEQLGTMPANVHLYSFVPQLQILERASLFLTHGGMNSVNEAIYYGCPMLVIPVGNDQPRVAQQVADLHLGKCLKCHNLNPQEIKQAAHTILKDSSYKNTIWHFQKIAQTAGGNTLIAQTIIKDLQTKP
MGSDKIHHHHHHMMKSLPHMIGNEIKRIRKEKKMTQKELCDGICSQAEISKIENGRNSPTIDLLQQISKRLRVPLSLLFRDQLESDAFREADNHLSSLFREQKYQEMRLELLRTDAIHHNEIRLLKAYFTILLEVKTEKIDYRTASALLSRLTDQEDIWYESPKMFIRIKMAISNLHVENEQYHLAEKVYEELEELTYDTEELKKQLIKVYYNHSQLLTYEKKYKAGLKITEKGLSYSLSLNDASFIAHFYYQRGYYHEVMLGDDSSPAQRDYTISYALFRAFHLHTYEEIVLKGKERFLLFTF
MGSDKIHHHHHHMMNLSELAPDYIRAIQPYQPGKPISELVRDLGLNKDEVVKLASNENPLGTSPLAKEAMIQALNESARYPDGSGFELKAALSERLGMPADQIVLGNGSNDVLELATRIFLHPDSTAIYSQYAFAIYPLLAQAVGARGIAVPARNYGHDLEAMLAAVTPETRIIFIANPNNPTGTLCDARDLLRFMERVPQDVLVILDEAYDEYLPEANKANSIAWLKNFQNLVITRTFSKAYGLASVRVGFALAHADIANLMNRIRQPFNVNSIGLAAAQAALKDVEFVKLAYMTNRTGMQQMTHGLDQLGIEYIPSFGNFVCCHIDGHPANTLKIYRNLLQQGVIVRPLGNYDMLNHLRVTIGIEEENKRFLQALEQALKELD
MGSDKIHHHHHHMMPQTSLHQHVMNWAISVPGDKTLKRDIFNNIWITASQRYEYQHLTFMAQGIVELLNTEIGGVDVSIPINLFLQSTEATKYDAEMLDFAQRIVTVKDRQHIALLSENILQKMPYQPDSTSVHTTATQAFQAGQGVCQDHAHVLIAMCRALQLPARYVSGYLFDQNSPHLASHAWAEVFLDNQWYCFDVSNQLFTPKHHIYLAVGRDYLDVAPIRGVREKGGTENMMSVVQVLAC
MGSDKIHHHHHHMMPYLAKILLYPVKSLDGVEVEKVGVLASGALQHDREFAIFDERGKFVNGKRHAKIHLLRVQFALFNRTISLQIPGGNSQQVFHLDEERQALEATLSNYFEFAVTLRQNSLMGFPDDTHSPGPTVISTATLTEVASWFPGLSVDEIRRRMRANIEIDGVPAFWEDRLFSEQGDLVSFRVGDVDFFGANPCQRCIVPTRDSYSGEAYPSFQKIFATQRQATLPNWVASSPFNHFYRLSVNTQLPISSAGKILQIGDGVDIFP
MGSDKIHHHHHHMMRALYTAATGMRAEQTNVDTIANNLSNVNTTGFKGQRTEFKSLLYQTIQTRSTSGNGDAKPVGAQVGLGTRVAATTSTYTQGPLNSTERPTDFALEGDGFFAVRGTDNQTYYTRNGAFTWSQYGNGQTILTDSQGNPVMDTNGNIIAVPAGVSAEKMSFGEDGAVGYMTAQGNYINLNQRIAVYQFNNPSGLEKQSGSLLAATANSGNPMLEIANPALKSSKVVTGYLEGSNVQVADEMVNLIVAQRAYELNSKAITTADSMLETANNLRR
MGSDKIHHHHHHMMVEESLQLQNELLNKLVQGGGLKELVDSAAHFVQREVVIANTSNRVLESTFSEGFSQGEFFAVLPLQPPVPGRVQLQAGEKKAEALVVELSHDAKRLGFLFICDPGADEDNRLKVLIHQARNVFVLELQKKAELLENSRNYQDAFLFDLLYGNIEDNADIIARGKLWGWDLSLPHVVTAFELEDYESYSQDHYLVTTLHDIIQSVAQSLDKTVILMEKNEEVVLALPVEARKRRDFKAYLNMIINQVLAQAEERLAPRVIRVGVGRRYEQPSELFRSYQEAKVAVKLSALLKDKGPIVYFRELGVERILYSHDKQELLEFYREILAELEAQDKQKNELIETLENYLVYHCDLKATADALFLHPNSLRYRLKRIEEILDLDLEDFDTRVSLVIAFKIKHLIHSKERL
MGSDKIHHHHHHMNARKGGVDRSRAEAGMADTLFFFHNPKAGGTSVEDALRSLFPDERCCPRIENDATEHAQRAGRYAGFRGYDFYAGHYGFDIYQAVGSGMAAATNFRWPIDRIVSVYRYFHHIVELSDSQVRDPRFRAVRLAKTLCMDDFVTCDDPAVQLHTHDHHFRQLTGSGWSMANEQDLSAAIRLINQMVWFYVCEHPHESLAWAEEAFCRALPEIPRLNITRPDSASETGLSARACRQLILQNERDIVLYQYALERLIAQVTHEPSRLVA
MGSDKIHHHHHHMNAWEVNFDGLVGLTHHYAGLSFGNEASTRHRFQVSNPRLAAKQGLLKMKALADAGFPQAVIPPHERPFIPVLRQLGFSGSDEQVLEKVARQAPHWLSSVSSASPMWVANAATIAPSADTLDGKVHLTVANLNNKFHRSLEAPVTESLLKAIFNDEEKFSVHSALPQVALLGDEGAANHNRLGGHYGEPGMQLFVYGREEGNDTRPSRYPARQTREASEAVARLNQVNPQQVIFAQQNPDVIDQGVFHNDVIAVSNRQVLFCHQQAFARQSQLLANLRARVNGFMAIEVPATQVSVSDTVSTYLFNSQLLSRDDGSMMLVLPQECREHAGVWGYLNELLAADNPISELKVFDLRESMANGGGPACLRLRVVLTEEERRAVNPAVMMNDTLFNALNDWVDRYYRDRLTAADLADPQLLREGREALDVLSQLLNLGSVYPFQREGGGNG
MGSDKIHHHHHHMNDLLKVIHNRASIRKFTGEHIPESDMEQIMSAAQSVPSINNYQPVTYVEITDQSVKDQAADLVNMPYVASSDRFFVILADYHKLLVGFEGKEREIAQTNLSAYNIAEGAALSAGVSAYAAIIAAESLGYGGVTMAGPVRAFQIYENYLDLPEMTKVVFTLALGVPDGHPGVKPKLPLSTFWQKDSYDTNVIDQGIADYNKTMRSYYESRNIDENWTEHNKKALTKAKDTTALTEYAKRKGFNLK
MGSDKIHHHHHHMNDPLDPLPSLNALRAFEAASRHLNFRLAAGELGVTQGAVAQHVRGLESSIGLVLFERRPRALVLTENGRSYAASVRRAFDLLVEATQALRPQPLQLTISVTPTFAAKWLIPRLQDFTAAHPEIDLRIIATDRLSHFQTDAIDLAVRYGQPPFGVGLNAECLFESVLVAVGSPRLANELRSSGAARFFARYPLLHDAHNQWPPFLQEVLKQSAAIGEKNIRFNQTSLAIDAAMAGQGIALAPFAFVGRAIAMGGLSRIFDVELRTGSGFYVVTPRRLRHPGPVAAVRGWLLKQGREQMCD
MGSDKIHHHHHHMNDVQQAINSDDIPLTDELVVSYLQDNPEFFNRNNSLMTGLRLNDEQRGTVSLVERQQQQLRQKVYGLEDEITQLMSVANHNEQLFVLYSDLYLRLLDCQSAEELLDCLHQATTELLSLSSFKLWLVSGNNTEVAHHSLSTNDCAGVMQNRLTNDEYYFGRLQESEQTLIFSKPCLGSVVLIKLTHDEQAVGFLAIGSEDAHHFDPRMDTLLLNQFKRLVAKLLHQQLSM
MGSDKIHHHHHHMNEIAGIPYVEASFDKNGQGPEEEVALPAGVTDLIIMSHGWNNNKSKAEDLYNGFFASFAAAAQPNDLSARKLVILGVFWPSREYDTSVAVSGTPATGGGGAALGGGNGGSIKRLEEKLDDMKEIFTEAEQKKLLDEAKALLPDLEEKASVRDLFVNKMRSLLDPSAAGKEDASNIFFKDGGNELMKNLKAEEEDLGEDVAGGGAALPLGVSTPARAEGGAAGLVEILSGFKAAAINLLNYTTYYEMKTRSGTVGKNGVAPLIDKLASQVERIHLIGHSFGCRVVTSAALGSKTDKIKSMILLQAAFSQNGFSKIEQGFYRAIVDNHRVKGPVLITHTPNDRAVGLAYPLASRISGDKTMAFGDKDDLFGAMGRNGAQKMEQGEAVEGKLLSVGGPYAFKANTYFNLEASDFIKNHNDIKGKEVGYVVRKVVATAGMG
MGSDKIHHHHHHMNFLDGHLFPENQQPLIITAAPYAPSWMPSDFPEDIAVTMEDQIQKAVDCYNAGATVLHLHVRELDGKGSKRLSKFNELIAGVRARVPEMIIQVGGSISFAPESEGAAAKWLSDDTRHMLAELEPTPDQVTVTVNTSQMNILEQFDHRDIVGSSMEDPEVFNAYKEMTVPAQPGWVEEHVRRLTAAGIQSAFQCYNLNSFESVERLMRRGIYKGPLVLNWVAIGGGMDSPSVYSLANFVRAVPDGAVLTVESSVCNVLPVNTMGIAMGLHVRCGTEDTLWNQTRTKKMGTVAQIEQLVRISEEMSRPIATARQAREMCRIGEFYDTVDETLQANGFAPNRNGGQQGFLRKVA
MGSDKIHHHHHHMNGALDVLAPAEVIVAATAPADNEASDMPPVEIVLDSPPVSAEMVFDEDADLLDRLATDDEAAFRMLVERHIDRAYSIALRILGNSADAEDVVQDTMLKVWTHRGRWQHGRAKFSTWLYRVVSNRCIDLRRKPRTENVEAVPEVADTQPDAVRVIERNELSNLLEAAMQRLPEQQRIAVILSYHENMSNAEIAEVMDTTIAAVESLLKRGRQQLRARLSGDESELRAAFTDF
MGSDKIHHHHHHMNHFFVEFGEYEASVCEWGDKSNPQIICFHGLGSTKLSFIEVAELLKDSYHIVSFDLPGHGKTQNFEKDEDYGASHLTNWVVALLEHIGKETFHIVAHSWGASVALHYAAECPEKVNKIVLLDGGYHHGKMNADYFANLYKDAKEGECPPRSLEEEITHYENDFDEYIFDSKETFIQSEKLAYSRWSPLLERAVYDLMREEDSKVKWHATGDTARGVIKFQYTVYKTLKPHKIKSDILLLYCDLPDNYLEIRELQIVEFKKRINITTKLYKDTGHLMHWDRPEEIAEDVLHWFK
MGSDKIHHHHHHMNIGGGKFLLGRISNNPTSGIVGLANVGKSTFFQAITNSKLGNPANYPFATIDAECAKVNIPSVPLSNLLRIYQSAKCVPGTLTIYDIAGLTRGASQGHGLGNKFLNDIRHVEGIFQVVRGFLKEDITHIEGNVDPVRDLSVVQDELILKDLEFLENIRERLSKKMRMVSKNSKEHQEMKIETELLDALEEHLFNGKKIRHFKDHWNLDEVKILNKHNFLTSKPTLILLNVSPQDYVRNENKFVRNIIEWINEFSPGDKFLLFSAEFESQLMECKGIASEYFDKIKEDTNVSDQQLVSAIPQIILEMRKLLNLISFFTCGPQEVHQWNIREGTTAQEAAGVIHSDLRETFISADVIKYDDLKKMEPPLNESLLKSKGLIKRAGKQYIMQDNDIALFKAAGGKIKK
MGSDKIHHHHHHMNIIKFFNQTIDYIETTLEDKIDEKKIVQLSGYSYPMFSRIFSILTAYSLSEYIRLRRLTKAAFDLRKNEEKVIDIAFKYQYESPDSFSLAFKKYHNCTPMEVKQGKDFKIFSPIHLSLTIKGGKAMEISIKKKEKFIVGGIKAENIETFQCPKVWEELFKKVSFNDLEKLGNGNSYGVCYETTSSKSINYIAAFDVKNVSEAKKLGLDTMEIPEAEYAVVKLKGKIPNCIHEGWKYVMEVFFPEHGYKHAGTPDFELYSEGDMGSDNYEMELWVPIIKAE
